First the molecules themselves.
T1: human GIP receptor (human) (UniProt P48546)
T1 sequence (looked up): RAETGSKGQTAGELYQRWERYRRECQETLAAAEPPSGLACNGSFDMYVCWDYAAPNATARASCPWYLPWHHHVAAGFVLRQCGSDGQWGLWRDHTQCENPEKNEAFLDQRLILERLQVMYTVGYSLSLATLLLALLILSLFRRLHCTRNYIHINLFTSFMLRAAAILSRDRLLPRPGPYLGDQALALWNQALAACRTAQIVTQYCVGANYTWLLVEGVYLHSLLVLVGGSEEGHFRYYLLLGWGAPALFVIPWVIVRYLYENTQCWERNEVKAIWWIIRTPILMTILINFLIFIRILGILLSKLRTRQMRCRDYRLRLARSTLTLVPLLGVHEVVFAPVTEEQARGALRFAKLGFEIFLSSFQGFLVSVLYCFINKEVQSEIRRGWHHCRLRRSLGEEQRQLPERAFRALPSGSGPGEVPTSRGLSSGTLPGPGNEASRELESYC

B1: Example 928 (peptide)
chain: YXQGTFTSDXSQXLDKKAQXAFIEYLIEXGPSSGAPPPSGSEE
modifications: acylated lysine γGlu-C18 diacid; non-natural residues; C-terminal amide; synthetic construct; SITE 2: note = 2-Aminoisobutyric Acid; SITE 10: note = 3-(4-Pyridyl)-L-alanine; SITE 13: note = alpha-methyl-leucine; SITE 17: note = Lysine is chemically modified through conjugation of the epsilon-amino group of the Lysine side chain with D-Glutamic acid-(gamma-Glu)-CO-(CH2)16
B2: Example 929 (peptide)
chain: B1 chain
modifications: non-natural residues, γGlu-C18 diacid acyl on K, C-terminal amide; synthetic construct; SITE 2: note = 2-Aminoisobutyric Acid; SITE 10: note = 3-(4-Pyridyl)-L-alanine; SITE 13: note = alpha-methyl-leucine; SITE 17: note = Lysine is chemically modified through conjugation of the epsilon-amino group of the Lysine side chain with (D-Glutamic acid)2-(gamma-Glu)-CO-(CH2)
B3: Example 930 (peptide)
chain: B1 chain
modifications: acylated Lys γGlu-(e)2-C18 diacid; non-natural residues; C-terminal amide; synthetic construct; SITE 2: note = 2-Aminoisobutyric Acid; SITE 10: note = 3-(4-Pyridyl)-L-alanine; SITE 13: note = alpha-methyl-leucine; SITE 17: note = Lysine is chemically modified through conjugation of the epsilon-amino group of the Lysine side chain with (gamma-Glu)-(D-Glutamic acid)2-CO-(CH2)
B4: Example 957 (peptide)
chain: B1 chain with Y25X, X29G
modifications: non-natural residues; Lys acylated C18 diacid; C-terminal amide; synthetic construct; SITE 2: note = 2-Aminoisobutyric Acid; SITE 10: note = 3-(4-Pyridyl)-L-alanine; SITE 13: note = alpha-methyl-leucine; SITE 17: note = Lysine is chemically modified through conjugation of the epsilon-amino group of the Lysine side chain with (gamma-Glu)2-CO-(CH2)16-CO2H; SITE 20:
B5: Example 955 (peptide)
chain: B1 chain with Q12X, Y25X, X29G
modifications: Aib, 4Pal, Me4Pal, Orn, alpha-methyl-Leu, lipidated Lys, amide; synthetic construct; SITE 2: note = 2-Aminoisobutyric Acid; SITE 10: note = 3-(4-Pyridyl)-L-alanine; SITE 12: note = L-ornithine; SITE 13: note = alpha-methyl-leucine; SITE 17: note = Lysine is chemically modified through conjugation of the epsilon-amino group of the Lysine side chain with (2-[2-(2-
B6: Example 956 (peptide)
chain: B1 chain with Q12R, Y25X, X29G
modifications: acylated lysine AEEA-γGlu-C18 diacid; non-natural residues; C-terminal amide; synthetic construct; SITE 2: note = 2-Aminoisobutyric Acid; SITE 10: note = 3-(4-Pyridyl)-L-alanine; SITE 13: note = alpha-methyl-leucine; SITE 17: note = Lysine is chemically modified through conjugation of the epsilon-amino group of the Lysine side chain with (2-[2-(2-Amino-ethoxy)-ethoxy]-acetyl)
B7: Example 954 (peptide)
chain: B1 chain with Y25X, X29G
modifications: non-natural residues; Lys acylated C18 diacid; C-terminal amide; synthetic construct; SITE 2: note = 2-Aminoisobutyric Acid; SITE 10: note = 3-(4-Pyridyl)-L-alanine; SITE 13: note = alpha-methyl-leucine; SITE 17: note = Lysine is chemically modified through conjugation of the epsilon-amino group of the Lysine side chain with (2-[2-(2-Amino-ethoxy)-ethoxy]-acetyl)
B8: Example 931 (peptide)
chain: B1 chain
modifications: acylated Lys e-γGlu-e-C18 diacid; non-natural residues; C-terminal amide; synthetic construct; SITE 2: note = 2-Aminoisobutyric Acid; SITE 10: note = 3-(4-Pyridyl)-L-alanine; SITE 13: note = alpha-methyl-leucine; SITE 17: note = Lysine is chemically modified through conjugation of the epsilon-amino group of the Lysine side chain with D-Glutamic acid-(gamma-Glu)-D-Glutamic
B9: Example 912 (peptide)
chain: YXQGTFTSDFSKXLDKKAQXAFIEXLIEXGPSSGAPPPSGS
modifications: non-natural residues, AEEA-γGlu-C18 diacid lysine acylation, C-terminal amide; synthetic construct; SITE 2: note = 2-Aminoisobutyric Acid; SITE 13: note = alpha-methyl-leucine; SITE 17: note = Lysine is chemically modified through conjugation of the epsilon-amino group of the Lysine side chain with (2-[2-(2-Amino-ethoxy)-ethoxy]-acetyl)-(gamma-Glu)-CO-(CH2) 16-CO2H; SITE 20: n
B10: Example 916 (peptide)
chain: B9 chain with F10X
modifications: Aib, 4Pal, αMeL, Me4Pal; lysine acylated C18 diacid; amide; synthetic construct; SITE 2: note = 2-Aminoisobutyric Acid; SITE 10: note = 3-(4-Pyridyl)-L-alanine; SITE 13: note = alpha-methyl-leucine; SITE 17: note = Lysine is chemically modified through conjugation of the epsilon-amino group of the Lysine side chain with (2-[2-(2-Amino-ethoxy)-ethoxy]-acetyl)
B11: Example 921 (peptide)
chain: B9 chain with F10X, K12Q, X25Y
modifications: Aib, 4Pal, αMeL, Me4Pal; acylated Lys; C-terminal amide; synthetic construct; SITE 2: note = 2-Aminoisobutyric Acid; SITE 10: note = 3-(4-Pyridyl)-L-alanine; SITE 13: note = alpha-methyl-leucine; SITE 17: note = Lysine is chemically modified through conjugation of the epsilon-amino group of the Lysine side chain with (D-Glutamic acid)2-(gamma-Glu)-CO-(CH2)
B12: Example 913 (peptide)
chain: B9 chain with K12Q
modifications: non-natural residues; acylated Lys C18 diacid; C-term amide; synthetic construct; SITE 2: note = 2-Aminoisobutyric Acid; SITE 13: note = alpha-methyl-leucine; SITE 17: note = Lysine is chemically modified through conjugation of the epsilon-amino group of the Lysine side chain with (2-[2-(2-Amino-ethoxy)-ethoxy]-acetyl)-(gamma-Glu)-CO-(CH2) 16-CO2H; SITE 20: n
B13: Example 933 (peptide)
chain: B9 chain with F10X, K12X, K16X, I27L, X29G
modifications: synthetic construct; SITE 2: note = 2-Aminoisobutyric Acid; SITE 10: note = 3-(4-Pyridyl)-L-alanine; SITE 12: note = L-ornithine; SITE 13: note = alpha-methyl-leucine; SITE 16: note = L-ornithine; SITE 17: note = Lysine is chemically modified through conjugation of the epsilon-amino group of the Lys
B14: Example 934 (peptide)
chain: B9 chain with F10X, K12Q, A21Q, X29G
modifications: non-natural residues, acylated Lys ((γGlu)2-C18 diacid), C-terminal amide; synthetic construct; SITE 2: note = 2-Aminoisobutyric Acid; SITE 10: note = 3-(4-Pyridyl)-L-alanine; SITE 13: note = alpha-methyl-leucine; SITE 17: note = Lysine is chemically modified through conjugation of the epsilon-amino group of the Lysine side chain with (gamma-Glu)2-CO-(CH2)16-CO2H; SITE 20:
B15: Example 918 (peptide)
chain: B9 chain with F10X, K12Q, X25Y, G40E, S41G
modifications: non-natural residues; lipidated Lys AEEA-γGlu-C18 diacid; synthetic construct; SITE 2: note = 2-Aminoisobutyric Acid; SITE 10: note = 3-(4-Pyridyl)-L-alanine; SITE 13: note = alpha-methyl-leucine; SITE 17: note = Lysine is chemically modified through conjugation of the epsilon-amino group of the Lysine side chain with (2-[2-(2-Amino-ethoxy)-ethoxy]-acetyl)
B16: Example 950 (peptide)
chain: B9 chain with F10X, K12R, X29G
modifications: non-natural residues, AEEA-γGlu-C18 diacid lysine acylation, C-terminal amide; synthetic construct; SITE 2: note = 2-Aminoisobutyric Acid; SITE 10: note = 3-(4-Pyridyl)-L-alanine; SITE 13: note = alpha-methyl-leucine; SITE 17: note = Lysine is chemically modified through conjugation of the epsilon-amino group of the Lysine side chain with (2-[2-(2-Amino-ethoxy)-ethoxy]-acetyl)

Positions count from the first letter of the chain named.

The first assay concerns the target T1, human GIP receptor (human). The experiment in a line: cell-based or functional assay.
In the case of B1, the cAMP Rel EC50 (1% HSA) was 15.1 nM.

B2 had a cAMP Rel EC50 (1% HSA) of 22.6 nM.

Turning to B3, the cAMP Rel EC50 (1% HSA) amounted to 19.9 nM.

For the molecule B4, the cAMP Rel EC50, nM (1% HSA) came to 25 nM.

As to B5, the cAMP Rel EC50, nM (1% HSA) came out at 42.3 nM.

Regarding B6, the cAMP Rel EC50, nM (1% HSA) was 32.1 nM.

With B7, the cAMP Rel EC50, nM (1% HSA) came to 35.3 nM.

B8 returned a cAMP Rel EC50 (1% HSA) of 20.8 nM.

The molecule B9 showed a cAMP Rel EC50 (1% HSA) of 6.15 nM.

B10 yielded a cAMP Rel EC50 (1% HSA) of 4.78 nM.

For B11, the cAMP Rel EC50 (1% HSA) stood at 12.4 nM.

B12: the cAMP Rel EC50 (1% HSA) turned out to be 5.62 nM.

On to B13, for which the Relative cAMP EC50 turned out to be 0.259 nM and the cAMP Rel EC50 (1% HSA) amounted to 35.1 nM.

The molecule B14 came in with a cAMP Rel EC50 (1% HSA) of 28.1 nM.

In turn, B15 yielded a cAMP Rel EC50 (1% HSA) of 18 nM.

Regarding B16, the cAMP Rel EC50, nM (1% HSA) is 18.1 nM.

Another assay deals with hGLP-1R (Homo sapiens, UniProt P43220). The experiment in a line: cell-based or functional assay.
hGLP-1R, sequence (P43220 24-463): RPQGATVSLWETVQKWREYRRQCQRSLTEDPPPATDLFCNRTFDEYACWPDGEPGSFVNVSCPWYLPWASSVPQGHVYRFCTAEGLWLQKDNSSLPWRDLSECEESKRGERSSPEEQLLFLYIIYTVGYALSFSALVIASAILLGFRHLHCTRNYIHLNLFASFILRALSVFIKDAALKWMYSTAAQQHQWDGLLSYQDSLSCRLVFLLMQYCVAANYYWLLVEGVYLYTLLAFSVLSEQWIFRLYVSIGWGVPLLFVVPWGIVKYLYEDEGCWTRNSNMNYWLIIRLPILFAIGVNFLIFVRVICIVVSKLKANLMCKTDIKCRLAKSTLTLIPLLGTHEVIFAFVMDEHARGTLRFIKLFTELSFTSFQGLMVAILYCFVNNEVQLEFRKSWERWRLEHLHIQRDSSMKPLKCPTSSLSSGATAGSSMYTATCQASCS
B1 registered a cAMP Rel EC50 (1% HSA) of 604 nM.

As for B2, the cAMP Rel EC50 (1% HSA) stood at 593 nM.

With B3, the cAMP Rel EC50 (1% HSA) was determined as 824 nM.

B4 registered a cAMP Rel EC50, nM (1% HSA) of 747 nM.

For B5, the cAMP Rel EC50, nM (1% HSA) is 1380 nM.

In the case of B6, the cAMP Rel EC50, nM (1% HSA) worked out at 643 nM.

For the molecule B7, the cAMP Rel EC50, nM (1% HSA) came out at 357 nM.

B8 showed a cAMP Rel EC50 (1% HSA) of 878 nM.

The molecule B9 showed a cAMP Rel EC50 (1% HSA) of 59.6 nM.

B10 returned a cAMP Rel EC50 (1% HSA) of 166 nM.

Molecule B11 yielded a cAMP Rel EC50 (1% HSA) of 261 nM.

B12 yielded a cAMP Rel EC50 (1% HSA) of 258 nM.

Take B13: the Relative cAMP EC50 came out at 2.32 nM and the cAMP Rel EC50 (1% HSA) was 557 nM.

Consider B14, for which the cAMP Rel EC50 (1% HSA) was found to be 175 nM.

Take B15: the cAMP Rel EC50 (1% HSA) worked out at 484 nM.

On to B16, for which the cAMP Rel EC50, nM (1% HSA) is 328 nM.

The target in a further assay is human glucagon receptor (human) (UniProt P47871). The experiment in a line: cell-based or functional assay.
human glucagon receptor (human), sequence (P47871 26-477): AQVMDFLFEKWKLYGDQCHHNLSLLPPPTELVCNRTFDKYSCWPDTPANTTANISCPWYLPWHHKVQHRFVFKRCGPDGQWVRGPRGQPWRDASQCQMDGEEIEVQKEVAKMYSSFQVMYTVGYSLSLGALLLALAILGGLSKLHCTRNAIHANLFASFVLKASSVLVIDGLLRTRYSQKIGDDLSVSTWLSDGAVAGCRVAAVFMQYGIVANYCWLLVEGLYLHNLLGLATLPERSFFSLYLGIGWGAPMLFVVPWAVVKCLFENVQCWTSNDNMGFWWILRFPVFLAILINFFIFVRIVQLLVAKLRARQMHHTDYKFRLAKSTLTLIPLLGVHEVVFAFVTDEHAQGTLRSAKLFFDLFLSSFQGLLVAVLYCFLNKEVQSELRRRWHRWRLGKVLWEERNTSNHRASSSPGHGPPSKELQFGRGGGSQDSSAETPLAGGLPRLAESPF
Molecule B1 gave a cAMP Rel EC50 (1% HSA) of 1090 nM.

B2 had a cAMP Rel EC50 (1% HSA) of 2690 nM.

In turn, B3 registered a cAMP Rel EC50 (1% HSA) of 1700 nM.

For B4, the cAMP Rel EC50, nM (1% HSA) is 947 nM.

B5 had a cAMP Rel EC50, nM (1% HSA) of 366 nM.

In turn, B6 had a cAMP Rel EC50, nM (1% HSA) of 406 nM.

As for B7, the cAMP Rel EC50, nM (1% HSA) came out at 450 nM.

Turning to B8, the cAMP Rel EC50 (1% HSA) was 2300 nM.

Molecule B9 gave a cAMP Rel EC50 (1% HSA) of 955 nM.

The molecule B10 showed a cAMP Rel EC50 (1% HSA) of 158 nM.

As to B11, the cAMP Rel EC50 (1% HSA) amounted to 2130 nM.

B12 displayed a cAMP Rel EC50 (1% HSA) of 1140 nM.

B13 had a Relative cAMP EC50 of 5.51 nM and a cAMP Rel EC50 (1% HSA) of 1530 nM.

B14 had a cAMP Rel EC50 (1% HSA) of 1380 nM.

The molecule B15 returned a cAMP Rel EC50 (1% HSA) of 590 nM.

Turning to B16, the cAMP Rel EC50, nM (1% HSA) turned out to be 327 nM.

The values are drawn from patent US20240270821A1, “GIP/GLP1/GCG TRI-RECEPTOR AGONISTS AND USES THEREOF” (priority 2023, published 2024).
